Experimental data as given in PMC11157053.

Target: T1, His6-LexA (Streptomyces mobaraensis NBRC 13819) (UniProt A0A5N5W758)
T1 sequence: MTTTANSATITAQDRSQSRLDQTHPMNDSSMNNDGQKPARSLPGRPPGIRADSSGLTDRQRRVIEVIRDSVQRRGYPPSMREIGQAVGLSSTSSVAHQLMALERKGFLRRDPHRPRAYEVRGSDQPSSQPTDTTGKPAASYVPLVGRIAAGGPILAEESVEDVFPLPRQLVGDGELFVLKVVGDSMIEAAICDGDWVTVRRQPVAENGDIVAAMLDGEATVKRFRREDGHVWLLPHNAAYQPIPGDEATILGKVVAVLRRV
Assay: EMSA
Details: EMSA: 0, 100, 200 ng His6-LexA, 25 nM probe, 20 uL; 30 mM KCl, 10 mM Tris-HCl (pH not stated), 0.4 mM DTT, 2 mM MgCl2, 0.2 mM EDTA, 2% glycerol; 30 min, 30 C …

Row | Sequence | binding
1 | CAGGCTGGTACTGATCGTCACCTGCGCGATTGGCGAGACACCTGCTGAGCAGACCGCCGCGGACCATCTCGGACACCTGCCCGACCGCTGCATTCGCCAACCGCCTCCGCACTCTCAACGACG (double strand) [Probe whiB (123 bp)] | binds
2 | CGGTGTGGAAGGTGGCGTGTACGGCATACGGATCGGAAGTGTCGTACCGCAGACCTGCGGGTACAGGCAGTGACGATTCGCTCGACACAACGAGGCGCAGGTGCAG (double strand) [Probe ssgA (106 bp)] | binds
3 | GAAAAGCGAACCAATTGGAATGTGGGGCCGGAACGGGAGGTCAGGCGTTCGACGTCACACTCCGCAGGGTACCGCTCACAGCCCGAAGCGGCGCTGGAGGTCTCCCAACTG (double strand) [Probe marR1 (112 bp)] | binds
